Holding throughout (test): FP
Assay [1] addresses T1, HPV33 E6 phospho-PBM peptide p33E6 (human papillomavirus type 33).
Assay [2] deals with T2, HPV35 E6 phospho-PBM peptide p35E6 (human papillomavirus type 35).
For assay [3], the target named is T1, HPV33 E6 phospho-PBM peptide p33E6. This is another data set of the same source.
For assay [4], the target named is T2, HPV35 E6 phospho-PBM peptide p35E6. The source holds these as a separate data set.

Where two headings read alike, the source gives them in different places. A value given as a limit tells only on which side of the number the result lay.

For orientation: Kd means the free concentration of one partner at which half of the binding sites on the other are occupied at equilibrium, for simple one-to-one binding. Low readings indicate tighter binding, high ones weaker binding.

B1: unfused 14-3-3ε devoid of the flexible C-terminal tail (domain or fragment)
chain: MDDREDLVYQAKLAEQAERYDEMVESMKKVAGMDVELTVEERNLLSVAYKNVIGARRASWRIISSIEQKEENKGGEDKLKMIREYRQMVETELKLICCDILDVLDKHLIPAANTGESKVFYYKMKGDYHRYLAEFATGNDRKEAAENSLVAYKAASDIAMTELPPTHPIRLGLALNFSVFYYEILNSPDRACRLAKAAFDDAIAELDTLSEESYKDSTLIMQLLRDNLTLWTS
Consider B1, for which the Kd in assay [1] is 7.94 µM; in assay [2], > 300 µM.

B2: full-length human 14-3-3τ fused to the C terminus of MBP (natural protein)
chain: MEKTELIQKAKLAEQAERYDDMATCMKAVTEQGAELSNEERNLLSVAYKNVVGGRRSAWRVISSIEQKTDTSDKKLQLIKDYREKVESELRSICTTVLELLDKYLIANATNPESKVFYLKMKGDYFRYLAEVACGDDRKQTIDNSQGAYQEAFDISKKEMQPTHPIRLGLALNFSVFYYEILNNPELACTLAKTAFDEAIAELDTLNEDSYKDSTLIMQLLRDNLTLWTSDSAGEECDAAEGAEN
Regarding B2, the Kd was 3.5 µM in assay [3], 233 µM in assay [4], 3.52 µM in assay [1] and 233 µM in assay [2].

B3: unfused 14-3-3τ devoid of the flexible C-terminal tail (domain or fragment)
chain: MEKTELIQKAKLAEQAERYDDMATCMKAVTEQGAELSNEERNLLSVAYKNVVGGRRSAWRVISSIEQKTDTSDKKLQLIKDYREKVESELRSICTTVLELLDKYLIANATNPESKVFYLKMKGDYFRYLAEVACGDDRKQTIDNSQGAYQEAFDISKKEMQPTHPIRLGLALNFSVFYYEILNNPELACTLAKTAFDEAIAELDTLNEDSYKDSTLIMQLLRDNLTLWT
For B3, the dissociation constant (Kd) is 5.15 µM in assay [1] and 363 µM in assay [2].

B4: full-length human 14-3-3σ fused to the C terminus of MBP (natural protein)
chain: MERASLIQKAKLAEQAERYEDMAAFMKGAVEKGEELSCEERNLLSVAYKNVVGGQRAAWRVLSSIEQKSNEEGSEEKGPEVREYREKVETELQGVCDTVLGLLDSHLIKEAGDAESRVFYLKMKGDYYRYLAEVATGDDKKRIIDSARSAYQEAMDISKKEMPPTNPIRLGLALNFSVFHYEIANSPEEAISLAKTTFDEAMADLHTLSEDSYKDSTLIMQLLRDNLTLWTADNAGEEGGEAPQEPQS
With B4, the Kd in assay [3] was 6.8 µM; in assay [4], > 300 µM; in assay [1], 6.77 µM.

B5: full-length human 14-3-3β fused to the C terminus of MBP (natural protein)
chain: MTMDKSELVQKAKLAEQAERYDDMAAAMKAVTEQGHELSNEERNLLSVAYKNVVGARRSSWRVISSIEQKTERNEKKQQMGKEYREKIEAELQDICNDVLELLDKYLIPNATQPESKVFYLKMKGDYFRYLSEVASGDNKQTTVSNSQQAYQEAFEISKKEMQPTHPIRLGLALNFSVFYYEILNSPEKACSLAKTAFDEAIAELDTLNEESYKDSTLIMQLLRDNLTLWTSENQGDEGDAGEGEN
With B5, the figures for the dissociation constant Kd in assay [3], in assay [4] and in assay [1] were 4.1 µM, > 300 µM and 4.05 µM, respectively.

B6: full-length human 14-3-3η fused to the C terminus of MBP (natural protein)
chain: MGDREQLLQRARLAEQAERYDDMASAMKAVTELNEPLSNEDRNLLSVAYKNVVGARRSSWRVISSIEQKTMADGNEKKLEKVKAYREKIEKELETVCNDVLSLLDKFLIKNCNDFQYESKVFYLKMKGDYYRYLAEVASGEKKNSVVEASEAAYKEAFEISKEQMQPTHPIRLGLALNFSVFYYEIQNAPEQACLLAKQAFDDAIAELDTLNEDSYKDSTLIMQLLRDNLTLWTSDQQDEEAGEGN
Regarding B6, the Kd in assay [3] worked out at 2 µM; in assay [4] it was 163 µM; in assay [1] it was 1.98 µM; in assay [2] it was 163 µM.

B7: full-length human 14-3-3ε fused to the C terminus of MBP (natural protein)
chain: MDDREDLVYQAKLAEQAERYDEMVESMKKVAGMDVELTVEERNLLSVAYKNVIGARRASWRIISSIEQKEENKGGEDKLKMIREYRQMVETELKLICCDILDVLDKHLIPAANTGESKVFYYKMKGDYHRYLAEFATGNDRKEAAENSLVAYKAASDIAMTELPPTHPIRLGLALNFSVFYYEILNSPDRACRLAKAAFDDAIAELDTLSEESYKDSTLIMQLLRDNLTLWTSDMQGDGEEQNKEALQDVEDENQ
As for B7, the Kd in assay [3] was 10.3 µM; in assay [4], > 300 µM.

B8: unfused 14-3-3β devoid of the flexible C-terminal tail (domain or fragment)
chain: MTMDKSELVQKAKLAEQAERYDDMAAAMKAVTEQGHELSNEERNLLSVAYKNVVGARRSSWRVISSIEQKTERNEKKQQMGKEYREKIEAELQDICNDVLELLDKYLIPNATQPESKVFYLKMKGDYFRYLSEVASGDNKQTTVSNSQQAYQEAFEISKKEMQPTHPIRLGLALNFSVFYYEILNSPEKACSLAKTAFDEAIAELDTLNEESYKDSTLIMQLLRDNLTLWT
Turning to B8, the dissociation constant Kd in assay [1] is 6.92 µM; in assay [2], > 400 µM.

These data come from PMC7961048 (2021).
